# Data published in the nanobody polyreactivity screen of Harvey et al. (2022).
# Test: yeast display, Sf9 membrane polyspecificity reagent, FACS + sequencing; frameworks hold sequencing errors
# Outline: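 Genes from sorted yeast were amplified by colony PCR, read by MiSeq 2 × 250 sequencing and filtered on CDR length. These cells carried a synthetic nanobody library in Saccharomyces cerevisiae BJ5465 and were sorted by FACS into low and high (top ~1%) gates on anti-HA and streptavidin fluorescence. Polyreactivity is labelled according to the gate of origin.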
row,Sequence,polyreactivity (PSR sort gate)
1,QVQLVESGGGLVQAGGRLRLSCAASGFTFTNYAMGRYRQAPGKERELVAAISWNGGSTYYADSVKGRFTISRDNAKNTVYLQMNSLKPEDTAVYYCNAYDYQYFYGYEYDYWGQGTQVTVSS,high polyreactivity
2,QVQIVESGGGLVQAGGSLRLSCAASGRSYAINAMGSYRQAPGKERELDASITTRDSSTYYADSVKGRFTISRDNAKNTVYLHMNSLKPEDTAVYYCAKVKLVTYLYRLFVYGSYYWGQGTLVTVSS,low polyreactivity
3,QVQLVESGGGLVQAGGSLRLSCAASGSTIPPNAMGWYRQAPGKERELVAVISNGGSNTRYADSVKGRFTISRDNAKNTVYLQMNRLKPEDTAVYYCAADYEYSGYGYWGQGTQVTVSS,high polyreactivity
4,QVQLVESGGVLVQAGGSLRLSCAASGIIFGRDTMGWYRQAPGKERELVAAITSSGITYYADSVKGRFTFSRDNAKNCVYLQMNSLKPEDTAVYYCIADYSIPGYYWPYDYWGQCTQVTVSS,low polyreactivity
5,QVQLVESGGGLVQAGGSLRLSCAASGFTFVYYAMGWYRQAPGKERELVATISGNGGRTYYADSVKGRFTISRDNAKNTVYLQMNSLKPEDTAVYYCAADVVTYLSYTLDYWGQGTQVTVSS,low polyreactivity
6,QVHLVESGGGLGQAGGSLRLSGAASGFIFGDYAMGWYRQAPGKERELVADINWTGGSTYYADSVKGRFTISRDNANNTVYLQMKSLKPEDTEVYYCDKDDYAFLITWVDYWGQGTQVTVSS,low polyreactivity
7,QVQLVESGGGLVQAGGSLRLSCAASGRTFPAYTMGWYRQAPGKERELVAAINWSGGSTYYADSVKGRFTISRDNAKNTVYLQMNSLKPEDTAVYYCARTSHYYGFRSYGTLDYWGQGTQVTVSS,high polyreactivity
8,QVQLVESGGGLVQAGGSLRLSCAASGFIFGFYAMGWYRQAPGKERELVADITSSGGSTYYADSVKGRFTISRDNAKYSVYLQMNSLKPEDTAVYYCAADGWWHNFYPGTGLDYWGQGTQVTVSS,low polyreactivity
9,QVQLVESGGGLVQAGGSLRLSCAASGRTFNTYAMGWYRQAPGKERELVAAISSGGRTYYADSVKGRFTISRDNAKNTVYLQMNSLKPEDTAVYYCAAKPFQYRTVYEYWGQGTQVTVSS,high polyreactivity
10,QVQLVESGGGLVQSGGSLRLSCAASGSFYYFYSMGWYRQAPGKEREVVAANTDGGSTHYAESVKGRFTISRDNAKNTVYLQMNSMKPEDTAVYSCAAQWHYYLGSGYQYDYWGQGTQVTVSS,low polyreactivity
11,QVQLHESGGGLVQAGGSLRLSCAASGTISYAGPMGWYRQAPGKEREFVAGIGVGSNTNYADSVKGRYTIIRDNAKNTVYLQMNSLKPEDTAVDYCAVGGYAPLGRPYWGQGTQVTVSS,low polyreactivity
12,QVQLVESGGGLVQAGGSLRLSCAASGRIFQKNAMGWYRQPPGKERELVAAISGSGSTTNYADSVKGRFTISRDNAKNTVDLQMNSLKPEDTAVFYCGTGKRGVSGRGFRYDYWGQGTQVTVSS,high polyreactivity
13,QVQLQESGGGLVQAGGSLRLSCASSGTISPLPAMGWYRQAPGKEREYVAGIDTGAITNYADSVKGRFTISRDNAKNTVYLQMNSLQPEDTAVYYCAVFPAAYDYYESYYTYWGQGTQVTVSS,low polyreactivity
14,QVQLVESGGGLVQAGGSLRLSCAASGYTFGKNAMGWYRQAPGKERELVAAISRSGGSTFYADSVKGRFTISRDNAKHTVYLQMNSLKPEDTAVYYCAARSYVRFDYWGQGTQVTVSS,high polyreactivity
15,QVQLVDSGGGLVQAGGSLRLSCAASGYILGRYAMGWYRQAPGKERELVAAISSSGGSTYYADSVKGRFTISRDNGKNSVYLQINSLKPEDTAFYYWNVPRFYGSYNYWGQGTQVTVSS,high polyreactivity
16,QVQLVESGGGLVQAGGSLRLSCAASGSIFGSYDMGWYRQAPGKERELVAAISEGGGSTYYADTVKGRFTISRDNAMNTVYLQMYSLKPEDTAVYYCAADLILSYYPYYQDYYWGQGTQVTVSS,low polyreactivity
17,QVQLVESGGGLVQAGGSLRLSCAASGNTFWDNAMGWYRQAPGKERELVAAIRWSTGSTHYADSVKGRFTISRDNAKNTVYLQMNSLKPEDTAVYYCAATDYYYYRDKYYGYDYWGQGTQVTVSS,low polyreactivity
18,QVQLVESGGGLVQAGGSLRLSCAASGFTFYTYVMGWYRQAPGKERELVAAITSGVSTNYADSVKGRFTISRDNAKNTVYLQMNSVKPEDTAVYYCAAGYPSWYYGYPYDSWGQGTQVTVSS,low polyreactivity
19,QVQLVESGGGLVQAGGSLRLSCAASGSIFKRYAMGWYRQAPGKERELVAAITYNGGSTYYADSVKGRFTISRDNAKNTVYLQMNSLKPEDTAVYYCAAERYNGYDYWGQGTQVTVSS,high polyreactivity
20,HVQLVESGGGFVQAGGSLRLICAASVRNFDVYSMGWYRQAPGKERELVAAISRRGGSTYYADSVKGRFTISRDNAKNTVYLQMNRLKPEDTAVYYCAAQSRQAYMTYGYWGLGTQVTVSS,high polyreactivity
21,QVQHVESGGGLVQAGGSLRLSCAASGRIIYRYAMGWYRQATGKERELVATITWSTTSTYYADSVKGRFTISREYAKNTVYLQMNSLKPVDTAVYYCAASIIPGFRRDPFGYWGQGTQVTVSS,low polyreactivity
22,QVQLVESGGGLVQAGGSLRLICAASGSIFTPNALGWYRPAPGKERELVAAISSSSDRTYYADSVKGRFTISRDNAKNSVFLLMNSLKPEDTAVYYCAAYAQKRYYWGQGTQVTVSS,high polyreactivity
23,QVQLVESGGGLVQAGGSLRLSCAASGSIFYYYAMGWYRQAPGKERELVAAINSGVSTYYADSVKGRFTISRDNAKNTVYLQMNSLKPEDTAVYYCAAPGHNLYGSWFSWTPDTYDYWGQGTQVTVSS,low polyreactivity
24,QVQLVESGGGLVQAGGSLRLSCAASGHIFFYYTMGWYRQAPGKERELVAGIPIGGSTNYADSVKGRFTISRDNAKNTVYLQMNSLKPVDTAVYYFNVVKYVYIYSFWEYYYWGQGTQVTVSS,low polyreactivity
25,QVQLVESGGGLVQAGGSLRLSCASSGFILDYNAMGWYRQAPGKERQLVATITGRGDRTYYADSVKGRFTISRDNAKNTVYLQMNSLKPEDTAVYYCAAGFDGSSHPGFDSWGQGTQVTVSS,low polyreactivity
26,QVQLVESGGGLVQAGGSLRLSCAASGFIFGGNAMGWYRQAPGKERELVAAITARSGSTYYADSVKGRFTISRDNAKNTVYLQMNSLKPEDTAVYYCATPVYRSTYEYDYWGQGTQVTVSS,low polyreactivity
27,QVQLVESGGGLVQAGGSLRLSCAASGSIFPSYARGWYRQAPGKERELVAAINWDGGSTFYADSVKGRFTISRDNAKNTVSLQMNSLKPEDTAVYYCAAPDNYGGVGGITFWRMDYWGQGTQVTVSS,low polyreactivity
28,QVQLVESGGGLVQAGGSLRLSCAASGRTFRVYAMGWYRQAPGKERELVAAITRGGSTYYADSVKGRFTISRDNAKNTVYLQMNSLKPEDTAVYYCAADVLRTQPIGWYSHSPLEYWGQGTQVTVSS,high polyreactivity
29,PVQLVESGGGLVQAGGSLRLSCAASGFTFPNYAMGWYRQAPGKERELVAVITYSGGSTYYADTVKGRFTISRDNAKNTVYLQMNRLKPEDTAVYYCNARYPGSWYFGQYGGYDYGYWGQGTQVTVSS,low polyreactivity
30,QVQLVESGGGLVQAGGSLRLSCAASGRIFAYYAMGWYRQAPGKERELVAAITTNGGGTYYADSVKGRFTISRDNAKNTVYLQMNSLKPEDTAVYYCNAVKQRSSIFDYWGQGTQVTVSS,low polyreactivity
